Laboratory results: patent US6566081B1, “Methods of identifying a compound which modulates the non-transcriptional non-map-kinase induced effects of steroid hormones” (The Brigham and Women's Hospital, Inc., priority 1999, dated 2003)

Biological target: T1, ER-α / PI3-kinase p85α (Homo sapiens, UniProt P03372)
T1 construct: endogenous in cells; host or cells: human endothelial cells (HSVEC), anti-ERα immunoprecipitate
T1 sequence (P03372 1-595): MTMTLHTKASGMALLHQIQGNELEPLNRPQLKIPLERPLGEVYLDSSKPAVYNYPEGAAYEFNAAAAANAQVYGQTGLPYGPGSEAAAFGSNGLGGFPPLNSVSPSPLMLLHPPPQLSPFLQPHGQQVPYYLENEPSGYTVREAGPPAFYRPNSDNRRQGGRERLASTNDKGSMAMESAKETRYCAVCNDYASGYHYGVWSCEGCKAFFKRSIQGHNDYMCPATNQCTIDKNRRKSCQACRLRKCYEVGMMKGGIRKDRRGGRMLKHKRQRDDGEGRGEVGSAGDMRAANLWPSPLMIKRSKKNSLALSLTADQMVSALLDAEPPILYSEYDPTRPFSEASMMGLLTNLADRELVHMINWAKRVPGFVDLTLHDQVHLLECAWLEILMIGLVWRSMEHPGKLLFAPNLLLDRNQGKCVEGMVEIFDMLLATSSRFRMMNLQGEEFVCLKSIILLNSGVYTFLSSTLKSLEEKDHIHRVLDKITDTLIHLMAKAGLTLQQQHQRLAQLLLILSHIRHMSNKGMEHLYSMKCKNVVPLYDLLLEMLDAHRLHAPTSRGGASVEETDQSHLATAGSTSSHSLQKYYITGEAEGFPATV
Assay: ER-α immunoprecipitation: co-precipitated p85α and associated PI3-kinase activity
Format: cell-based
Conditions: ER-α immunoprecipitate

For “insulin: known activator of the PI3-kinase/Akt pathway”, the “stimulation of ER-α-associated PI3-kinase activity” value was “did not increase or augment”.
